Data published in article PMC7666158.

Tests used:
[1] = target: pp-JNK1 (activated, phosphorylated JNK1) (human) (UniProt P45983); test: in vitro kinase assay fitted with a kinetic model; 5 nM pp-JNK or pp-p38, MBP-ATF2(19-100) substrate 0.5-100 uM, 5 mM ATP, kinase buffer; p-T71 and p-T69/T71 by quantitative dot-blots; binding rates (kon, koff) and reaction rates fitted simultaneously with the BioNetGen model (PyBioNetFit)
[2] = target: JNK1-dc20 (JNK1 where the C-terminal 20 residues are truncated) (human) (UniProt P45983); test: fluorescence polarisation; competitive titration: JNK1 with CF-evJIP (50 nM; JNK1 at ~60-80% complex formation) titrated with unlabeled MBP-ATF2(19-100) constructs; data fit to a competition binding equation; 20 mM Tris pH 8.0, 100 mM NaCl, 0.05% Brij35P, 2 mM TCEP
[3] = target: JNK1-dc20 (JNK1 with the C-terminal 20 residues truncated) (human) (UniProt P45983); test: ITC; as a5, with 2 mM EDTA
[4] = target: JNK1-dc20 (JNK1 with the C-terminal 20 residues truncated) (human) (UniProt P45983); test: fluorescence polarisation; competitive: 50 nM CF-evJIP with JNK1 at ~60–80% complex, titrated with unlabeled competitor; 20 mM Tris pH 8.0, 100 mM NaCl, 0.05% Brij35P, 2 mM TCEP; 384-well plates

| Binder | Kd [2] [µM] | further results |
| --- | --- | --- |
| MBP-ATF2(19-100)-WT (domain or fragment) MSDDKPFLCTAPGCGQRFTNEDHLAVHKHKHEMTLKFGPARNDSVIVADQTPTPTRFLKNCEEVGLFNELASPFENEFKKAS | 3.5 | Kd [1]: 3.5 µM; koff [1]: 19.6 s⁻¹; kon [1]: 5.6e+06 M⁻¹ s⁻¹ |
| MBP-ATF2-(19-100)-V44A (domain or fragment) MSDDKPFLCTAPGCGQRFTNEDHLAAHKHKHEMTLKFGPARNDSVIVADQTPTPTRFLKNCEEVGLFNELASPFENEFKKAS | 15.5 |  |
| MBP-ATF2-(19-100)-V44E (domain or fragment) MSDDKPFLCTAPGCGQRFTNEDHLAEHKHKHEMTLKFGPARNDSVIVADQTPTPTRFLKNCEEVGLFNELASPFENEFKKAS | 56.2 |  |
| MBP-ATF2-(19-100)-H47E (domain or fragment) MSDDKPFLCTAPGCGQRFTNEDHLAVHKEKHEMTLKFGPARNDSVIVADQTPTPTRFLKNCEEVGLFNELASPFENEFKKAS | 39.3 |  |
| MBP-ATF2-(19-100)-H47R (domain or fragment) MSDDKPFLCTAPGCGQRFTNEDHLAVHKRKHEMTLKFGPARNDSVIVADQTPTPTRFLKNCEEVGLFNELASPFENEFKKAS | 0.26 |  |
| MBP-ATF2-(19-100)-Q34R (domain or fragment) MSDDKPFLCTAPGCGRRFTNEDHLAVHKHKHEMTLKFGPARNDSVIVADQTPTPTRFLKNCEEVGLFNELASPFENEFKKAS | 0.87 |  |
| MBP-ATF2-(19-100)-Q34R/H47R (domain or fragment) MSDDKPFLCTAPGCGRRFTNEDHLAVHKRKHEMTLKFGPARNDSVIVADQTPTPTRFLKNCEEVGLFNELASPFENEFKKAS | 0.05 |  |
| MSDDKPFLCTAPGCGQRFTNEDHLAVHKHKHEMTLKFGPA (domain or fragment) [ATF2(19–58)-His6 (MBP removed, for ITC)] |  | fold decrease in binding with EDTA against no EDTA [3]: 10 fold |
| MSDDKPFLCTAPGCGQRFTNEDHLAVHKHKHEMTLKFGPA (domain or fragment) [ATF2(19–58) as used in the competitive fluorescence polarisation assay] |  | Kd [4]: 5 µM |
| MBP-ATF2(19–100) K48E (domain or fragment) MSDDKPFLCTAPGCGQRFTNEDHLAVHKHEHEMTLKFGPARNDSVIVADQTPTPTRFLKNCEEVGLFNELASPFENEFKKAS |  | fold decrease in binding against the wild type [4]: 10 fold |
